In patent publication US20070275903A1 (Bristol-Myers Squibb, published 2007):
Blank lines part the entries; values can stand above or below the molecule they belong to. Starred links: 1 amine or outer side, 2 acyl side, 3 side chain; linkers in the order of their positions; H or OH if unused. Suc = O=C(CCC(=O)[*:2])[*:1]; Dox = doxorubicin

Key:
Pyg-Leu-Ala-Leu-Dnr = tested on: T1, Pyg-Leu-Ala-Leu-Dnr
T1 sequence: LAL

Suc-Leu-Ala-Gly-Dox = tested on: T2, Suc-Leu-Ala-Gly-Dox
T2 sequence: LAG

Suc-Leu-Ala-Leu-Dnr = tested on: T3, Suc-Leu-Ala-Leu-Dnr
T3 sequence: LAL

Suc-Leu-Ala-Leu-Dox = tested on: T4, Suc-Leu-Ala-Leu-Dox
T4 sequence: LAL

Suc-Leu-Thr-Leu-Dnr = tested on: T5, Suc-Leu-Thr-Leu-Dnr
T5 sequence: LTL

Suc-Leu-Tyr-Leu-Dnr = tested on: T6, Suc-Leu-Tyr-Leu-Dnr
T6 sequence: LYL

Suc-Leu-Tyr-Leu-Dox = tested on: T7, Suc-Leu-Tyr-Leu-Dox
T7 sequence: LYL

Suc-Met-Ala-Leu-Dnr = tested on: T8, Suc-Met-Ala-Leu-Dnr
T8 sequence: MAL

Suc-Met-Ala-Leu-Dox = tested on: T9, Suc-Met-Ala-Leu-Dox
T9 sequence: MAL

Suc-Met-Gly-Ile-Dnr = tested on: T10, Suc-Met-Gly-Ile-Dnr
T10 sequence: MGI

Suc-Met-Gly-Leu-Dnr = tested on: T11, Suc-Met-Gly-Leu-Dnr
T11 sequence: MGL

Suc-Met-Gly-Phe-Dnr = tested on: T12, Suc-Met-Gly-Phe-Dnr
T12 sequence: MGF

Suc-Nle-Ala-Leu-Dnr = tested on: T13, Suc-Nle-Ala-Leu-Dnr
T13 sequence: XAL

Suc-Nle-Gly-Phe-Dnr = tested on: T14, Suc-Nle-Gly-Phe-Dnr
T14 sequence: XGF

Suc-Phe-Gly-Ile-Dnr = tested on: T15, Suc-Phe-Gly-Ile-Dnr
T15 sequence: FGI

Suc-Phe-Gly-Leu-Dnr = tested on: T16, Suc-Phe-Gly-Leu-Dnr
T16 sequence: FGL

Suc-Phe-Gly-Phe-Dnr = tested on: T17, Suc-Phe-Gly-Phe-Dnr
T17 sequence: FGF

Suc-Tyr-Ala-Ile-Dnr = tested on: T18, Suc-Tyr-Ala-Ile-Dnr
T18 sequence: YAI

Suc-Tyr-Ala-Leu-Dnr = tested on: T19, Suc-Tyr-Ala-Leu-Dnr
T19 sequence: YAL

Suc-βAla-Leu-Ala-Leu-Dox = tested on: T20, Suc-βAla-Leu-Ala-Leu-Dox
T20 sequence: ALAL

[1] = target: CD10 expressed on Ramos and Namalwa B-cell lines (UniProt P08473 2-750, limits assumed); assay: cell-based or functional assay
CD10 expressed on Ramos and Namalwa B-cell lines, sequence (P08473 2-750 limits assumed): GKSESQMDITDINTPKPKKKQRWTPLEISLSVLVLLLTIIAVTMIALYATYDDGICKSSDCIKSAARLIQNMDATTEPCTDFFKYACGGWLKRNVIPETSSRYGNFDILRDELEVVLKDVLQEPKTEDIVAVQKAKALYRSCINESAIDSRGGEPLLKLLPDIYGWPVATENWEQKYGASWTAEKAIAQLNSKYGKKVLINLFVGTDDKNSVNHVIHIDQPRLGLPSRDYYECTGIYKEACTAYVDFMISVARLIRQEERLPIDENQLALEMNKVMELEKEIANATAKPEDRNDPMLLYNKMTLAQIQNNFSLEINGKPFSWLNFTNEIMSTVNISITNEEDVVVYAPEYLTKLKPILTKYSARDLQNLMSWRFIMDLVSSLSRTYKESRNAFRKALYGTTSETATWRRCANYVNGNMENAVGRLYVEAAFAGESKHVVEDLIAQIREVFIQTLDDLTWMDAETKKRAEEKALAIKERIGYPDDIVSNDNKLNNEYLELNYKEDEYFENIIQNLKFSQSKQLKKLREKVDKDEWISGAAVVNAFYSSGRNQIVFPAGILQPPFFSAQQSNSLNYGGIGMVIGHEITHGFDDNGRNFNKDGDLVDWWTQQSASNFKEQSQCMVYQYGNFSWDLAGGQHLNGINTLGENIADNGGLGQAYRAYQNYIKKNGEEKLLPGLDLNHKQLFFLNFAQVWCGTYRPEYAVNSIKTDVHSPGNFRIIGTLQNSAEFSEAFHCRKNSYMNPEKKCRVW

Molecule: trouase (carcinoma cell enzyme preparations; HeLa cell anion exchange fraction pool)
Relative Cleavage % (Pyg-Leu-Ala-Leu-Dnr): 76%
cleavage by carcinoma enzyme preparations (HPLC, 2 hr at 37 C) (Pyg-Leu-Ala-Leu-Dnr): cleaved by the trouase under the given conditions
Relative Cleavage % (Suc-Leu-Ala-Gly-Dox): 40%
cleavage by carcinoma enzyme preparations (HPLC, 2 hr at 37 C) (Suc-Leu-Ala-Gly-Dox): cleaved by the trouase under the given conditions
Relative Cleavage % (Suc-Leu-Ala-Leu-Dnr): 76%
cleavage by carcinoma enzyme preparations (HPLC, 2 hr at 37 C) (Suc-Leu-Ala-Leu-Dnr): cleaved by the trouase under the given conditions
Relative Cleavage % (Suc-Leu-Ala-Leu-Dox): 62%
cleavage by carcinoma enzyme preparations (HPLC, 2 hr at 37 C) (Suc-Leu-Ala-Leu-Dox): cleaved by the trouase under the given conditions
cleavage by carcinoma enzyme preparations (HPLC, 2 hr at 37 C) (Suc-Leu-Thr-Leu-Dnr): cleaved by the trouase under the given conditions
cleavage by carcinoma enzyme preparations (HPLC, 2 hr at 37 C) (Suc-Leu-Tyr-Leu-Dnr): cleaved by the trouase under the given conditions
cleavage by carcinoma enzyme preparations (HPLC, 2 hr at 37 C) (Suc-Leu-Tyr-Leu-Dox): cleaved by the trouase under the given conditions
Relative Cleavage % (Suc-Met-Ala-Leu-Dnr): 69%
cleavage by carcinoma enzyme preparations (HPLC, 2 hr at 37 C) (Suc-Met-Ala-Leu-Dnr): cleaved by the trouase under the given conditions
Relative Cleavage % (Suc-Met-Ala-Leu-Dox): 49%
cleavage by carcinoma enzyme preparations (HPLC, 2 hr at 37 C) (Suc-Met-Ala-Leu-Dox): cleaved by the trouase under the given conditions
Relative Cleavage % (Suc-Met-Gly-Ile-Dnr): 46%
cleavage by carcinoma enzyme preparations (HPLC, 2 hr at 37 C) (Suc-Met-Gly-Ile-Dnr): cleaved by the trouase under the given conditions
Relative Cleavage % (Suc-Met-Gly-Leu-Dnr): 55%
cleavage by carcinoma enzyme preparations (HPLC, 2 hr at 37 C) (Suc-Met-Gly-Leu-Dnr): cleaved by the trouase under the given conditions
Relative Cleavage % (Suc-Met-Gly-Phe-Dnr): 29%
cleavage by carcinoma enzyme preparations (HPLC, 2 hr at 37 C) (Suc-Met-Gly-Phe-Dnr): cleaved by the trouase under the given conditions
cleavage by carcinoma enzyme preparations (HPLC, 2 hr at 37 C) (Suc-Nle-Ala-Leu-Dnr): cleaved by the trouase under the given conditions
Relative Cleavage % (Suc-Nle-Gly-Phe-Dnr): 17%
Relative Cleavage % (Suc-Phe-Gly-Ile-Dnr): 54%
cleavage by carcinoma enzyme preparations (HPLC, 2 hr at 37 C) (Suc-Phe-Gly-Ile-Dnr): cleaved by the trouase under the given conditions
Relative Cleavage % (Suc-Phe-Gly-Leu-Dnr): 24%
cleavage by carcinoma enzyme preparations (HPLC, 2 hr at 37 C) (Suc-Phe-Gly-Leu-Dnr): cleaved by the trouase under the given conditions
Relative Cleavage % (Suc-Phe-Gly-Phe-Dnr): 12%
cleavage by carcinoma enzyme preparations (HPLC, 2 hr at 37 C) (Suc-Phe-Gly-Phe-Dnr): cleaved by the trouase under the given conditions
Relative Cleavage % (Suc-Tyr-Ala-Ile-Dnr): 25%
cleavage by carcinoma enzyme preparations (HPLC, 2 hr at 37 C) (Suc-Tyr-Ala-Ile-Dnr): cleaved by the trouase under the given conditions
Relative Cleavage % (Suc-Tyr-Ala-Leu-Dnr): 77%

Molecule: purified Porcine Kidney CD10 (Elastin Products Company)
% hydrolysis/10 hr (Suc-Leu-Ala-Gly-Dox): 0%
Fraction hydrolyzed relative to standard (Suc-Leu-Ala-Gly-Dox): 0
% hydrolysis/10 hr (Suc-Leu-Ala-Leu-Dox): 8.3%
Fraction hydrolyzed relative to standard (Suc-Leu-Ala-Leu-Dox): 0.75
% hydrolysis/10 hr (Suc-βAla-Leu-Ala-Leu-Dox): 10.9%
Fraction hydrolyzed relative to standard (Suc-βAla-Leu-Ala-Leu-Dox): 1

Results, then the molecule that gave them:

IC50 (µM), 3H-thymidine incorporation, Namalwa (CD10pos) cells [1]: 17.3 µM
IC50 (µM), 3H-thymidine incorporation, Ramos (CD10pos) cells [1]: 22.7 µM
Ratio of IC50 Ball-1 (CD10neg):Namalwa (CD10pos) [1]: 1
Ratio of IC50 Ball-1 (CD10neg):Ramos (CD10pos) [1]: 1
Molecule: Suc-Leu-Ala-Gly-Dox [Suc-Leu-Ala-Gly-Dox]

IC50 (µM), 3H-thymidine incorporation, Namalwa (CD10pos) cells [1]: 2.27 µM
IC50 (µM), 3H-thymidine incorporation, Ramos (CD10pos) cells [1]: 2.63 µM
Ratio of IC50 Ball-1 (CD10neg):Namalwa (CD10pos) [1]: 35
Ratio of IC50 Ball-1 (CD10neg):Ramos (CD10pos) [1]: 30
Molecule: Suc-Leu-Ala-Leu-Dox [Suc-Leu-Ala-Leu-Dox]
